From US8445655, “Functional nucleic acid ligands to fluorescent proteins” (Cornell Research Foundation, Inc.) come the findings set out here.

In the data set the target is GFP (wild-type green fluorescent protein) (Aequorea victoria, UniProt P42212 P42212:1-238). The data set is described as follows: filter; higher affinity than G16. Particulars: tags: His-tag (His-tagged GFP used on Ni beads in selection).

B1: AP4 (ssRNA)
RNA: GGGAGCACGAUUCCAUGAUUCUCGUAUCAAGGAAGGGUUAUGAGAUUUAGGUAAACGUGGCGAAUUGGGUGGGGAAAGUCCUAAAAAGAGGGCCACCACAGAGGCUUGUAAUCGAUGUUACUAUAGAGGGACACGACUACAAGCUUCUGGACUCGGU
With B1, the binding result is “binds”.

B2: AP6 (ssRNA)
RNA: GGGAGCACGAUUCCAUUGGAUGCCACCGCGACUACGGUUAGUAGGCAUUCUGAGUCGUGGCGAAUUGGGUGGGGAAAGUCCUGAAAAGAGGGCCACCACAGAGGCUCAAACUGGACGUUAAUGACGUUUCGGUUCAGUACAAGCUUCUGGACUCGGU
For B2, the binding result is on record as “binds”.

B3: AP2 (ssRNA)
RNA: GGGAGCACGAUUCCAUGCAAUUGUCGAGUUGUUAGCAGCAGCUUGCAUAUUGAGUCGUGGCGAAUUGGGUGGGGAAAGUCCUAAAAAGAGGGCCACCACAGAGGUUUGUACCCAUACUACAAGCUUCUGGACUCGGU
On to B3, for which the binding result is recorded as “binds”.
